Laboratory results: patent US20150322474A1 (UNIVERSITY OF THE UNIVERSITY OF ABERDEEN, published 2015)
Where a chain is given by its changes, count along the chain named. Names and notes keep the numbering of the source.

B1: PatGmacH618A (inactive mutant of the PatG macrocyclase domain) (enzyme)
chain: GEDEIESAGVSASEVESSATKQKVALHPHDLDERIPGLADLHNQTLGDPQITIVIIDGDPDYTLSCFEGAEVSKVFPYWHEPAEPITPEDYAAFQSIRDQGLKGKEKEEALEAVIPDTKDRIVLNDAACHVTSTIVGQEHSPVFGIAPNCRVINMPQDAVIRGNYDDVMSPLNLARAIDLALELGANIIHCAFCRPTQTSEGEEILVQAIKKCQDNNVLIVSPTGNNSNESWCLPAVLPGTLAVGAAKVDGTPCHFSNWGGNNTKEGILAPGEEILGAQPCTEEPVRLTGTSMAAPVMTGISALLMSLQVQQGKPVDAEAVRTALLKTAIPCDPEVVEEPERCLRGFVNIPGAMKVLFGQ
B2: PatGmacΔ2 (deletion of residues 578-614, the helix-loop-helix insertion and the N-terminal extension of α4) (protein)
chain: GEDEIESAGVSASEVESSATKQKVALHPHDLDERIPGLADLHNQTLGDPQITIVIIDGDPDYTLSCFEGAEVSKVFPYWHEPAEPILNDHACHVTSTIVGQEHSPVFGIAPNCRVINMPQDAVIRGNYDDVMSPLNLARAIDLALELGANIIHCAFCRPTQTSEGEEILVQAIKKCQDNNVLIVSPTGNNSNESWCLPAVLPGTLAVGAAKVDGTPCHFSNWGGNNTKEGILAPGEEILGAQPCTEEPVRLTGTSMAAPVMTGISALLMSLQVQQGKPVDAEAVRTALLKTAIPCDPEVVEEPERCLRGFVNIPGAMKVLFGQ
B3: PatGmacΔ1 (deletion of residues 578-608, the helix-loop-helix insertion motif) (protein)
chain: GEDEIESAGVSASEVESSATKQKVALHPHDLDERIPGLADLHNQTLGDPQITIVIIDGDPDYTLSCFEGAEVSKVFPYWHEPAEPITKDRIVLNDHACHVTSTIVGQEHSPVFGIAPNCRVINMPQDAVIRGNYDDVMSPLNLARAIDLALELGANIIHCAFCRPTQTSEGEEILVQAIKKCQDNNVLIVSPTGNNSNESWCLPAVLPGTLAVGAAKVDGTPCHFSNWGGNNTKEGILAPGEEILGAQPCTEEPVRLTGTSMAAPVMTGISALLMSLQVQQGKPVDAEAVRTALLKTAIPCDPEVVEEPERCLRGFVNIPGAMKVLFGQ
B4: PatGmac K598D (protein)
chain: B1 chain with K107D, A127H
B5: PatGmac wild-type (macrocyclase domain of PatG, residues 492-851) (protein)
chain: B1 chain with A127H
B6: PatGmac K594D (protein)
chain: B1 chain with K103D, A127H
B7: PatGmac triple mutant R589D K594D K598D (protein)
chain: B1 chain with R98D, K103D, K107D, A127H

Target: T1, VPAPIPFPAYDG peptide (substrate mimic, P8-P4')
T1 peptide: VPAPIPFPAYDG
Assay: X-ray crystal structure of the complex, 2.63 Å (co-crystallised, then soaked in 7.5 mM peptide)
B1: binds.

Target: T2, VGAGIGFPAYDG peptide substrate
T2 chain: VGAGIGFPAYDG
Assay: not given
Work on B2 yielded a Cyclic ion count (%) (M + H = 699) of 0%, a Linear ion count (%) (M + H = 717) greater than 99% and an Unprocessed ion count (%) (M + H = 1123) of less than 1%. Binder B3 has a Cyclic ion count (%) (M + H = 699) of 0%, a Linear ion count (%) (M + H = 717) of 92% and an Unprocessed ion count (%) (M + H = 1123) of 8%. With B4 the Cyclic ion count (%) (M + H = 699) was 0%, the Linear ion count (%) (M + H = 717) was 100% and the Unprocessed ion count (%) (M + H = 1123) was 0%. B5 was tested, and the Cyclic ion count (%) (M + H = 699) was 100%, the Linear ion count (%) (M + H = 717) was 0% and the Unprocessed ion count (%) (M + H = 1123) was 0%. Work on B6 yielded a Cyclic ion count (%) (M + H = 699) of 29%, a Linear ion count (%) (M + H = 717) of 71% and an Unprocessed ion count (%) (M + H = 1123) of 0%. With B7 the Cyclic ion count (%) (M + H = 699) was 0%, the Linear ion count (%) (M + H = 717) was 6% and the Unprocessed ion count (%) (M + H = 1123) was 94%.

Target: T3, VGAGIGFPAYRG peptide substrate (modified recognition sequence, Asp to Arg)
T3 chain: VGAGIGFPAYRG
Assay: not given
In the case of B4, the “linear product, LC-MS” value is reported as “PatGmac K598D produced cyclo[VGAGIGFP] with only 8% linear product, at a rate over an order of magnitude faster than wild-type PatGmac with VGAGIGFPAYDG”. In the case of B5, the “macrocyclization reaction, LC-MS” value is reported as “reacted extremely slowly with the substrate giving equal amounts of macrocyclized and linear products”. For B6, the “macrocyclization reaction, LC-MS” value was “reacted extremely slowly with the substrate giving equal amounts of macrocyclized and linear products”. B7 was tested, and the “macrocyclization reaction, LC-MS” value was “reacted extremely slowly with the substrate giving equal amounts of macrocyclized and linear products”.
